Measurements published in IntAct's records for PubMed 10984058.

B1: Myosin-2 (Saccharomyces cerevisiae), P19524 (parent)
chain: MSFEVGTRCWYPHKELGWIGAEVIKNEFNDGKYHLELQLEDDEIVSVDTKDLNNDKDQSLPLLRNPPILEATEDLTSLSYLNEPAVLHAIKQRYSQLNIYTYSGIVLIATNPFDRVDQLYTQDMIQAYAGKRRGELEPHLFAIAEEAYRLMKNDKQNQTIVVSGESGAGKTVSAKYIMRYFASVEEENSATVQHQVEMSETEQKILATNPIMEAFGNAKTTRNDNSSRFGKYLEILFDKDTSIIGARIRTYLLERSRLVYQPPIERNYHIFYQLMAGLPAQTKEELHLTDASDYFYMNQGGDTKINGIDDAKEYKITVDALTLVGITKETQHQIFKILAALLHIGNIEIKKTRNDASLSADEPNLKLACELLGIDAYNFAKWVTKKQIITRSEKIVSNLNYSQALVAKDSVAKFIYSALFDWLVENINTVLCNPAVNDQISSFIGVLDIYGFEHFEKNSFEQFCINYANEKLQQEFNQHVFKLEQEEYVKEEIEWSFIEFNDNQPCIDLIENKLGILSLLDEESRLPAGSDESWTQKLYQTLDKSPTNKVFSKPRFGQTKFIVSHYALDVAYDVEGFIEKNRDTVSDGHLEVLKASTNETLINILEGLEKAAKKLEEAKKLELEQAGSKKPGPIRTVNRKPTLGSMFKQSLIELMNTINSTNVHYIRCIKPNADKEAWQFDNLMVLSQLRACGVLETIRISCAGFPSRWTFEEFVLRYYILIPHEQWDLIFKKKETTEEDIISVVKMILDATVKDKSKYQIGNTKIFFKAGMLAYLEKLRSNKMHNSIVMIQKKIRAKYYRKQYLQISQAIKYLQNNIKGFIIRQRVNDEMKVNCATLLQAAYRGHSIRANVFSVLRTITNLQKKIRKELKQRQLKQEHEYNAAVTIQSKVRTFEPRSRFLRTKKDTVVVQSLIRRRAAQRKLKQLKADAKSVNHLKEVSYKLENKVIELTQNLASKVKENKEMTERIKELQVQVEESAKLQETLENMKKEHLIDIDNQKSKDMELQKTIENNLQSTEQTLKDAQLELEDMVKQHDELKEESKKQLEELEQTKKTLVEYQTLNGDLQNEVKSLKEEIARLQTAMSLGTVTTSVLPQTPLKDVMGGGASNFNNMMLENSDLSPNDLNLKSRSTPSSGNNHIDSLSVDRENGVNATQINEELYRLLEDTEILNQEITEGLLKGFEVPDAGVAIQLSKRDVVYPARILIIVLSEMWRFGLTKQSESFLAQVLTTIQKVVTQLKGNDLIPSGVFWLANVRELYSFVVFALNSILTEETFKNGMTDEEYKEYVSLVTELKDDFEALSYNIYNIWLKKLQKQLQKKAINAVVISESLPGFSAGETSGFLNKIFANTEEYTMDDILTFFNSIYWCMKSFHIENEVFHAVVTTLLNYVDAICFNELIMKRNFLSWKRGLQLNYNVTRLEEWCKTHGLTDGTECLQHLIQTAKLLQVRKYTIEDIDILRGICYSLTPAQLQKLISQYQVADYESPIPQEILRYVADIVKKEAALSSSGNDSKGHEHSSSIFITPETGPFTDPFSLIKTRKFDQVEAYIPAWLSLPSTKRIVDLVAQQVVQDGH
partner: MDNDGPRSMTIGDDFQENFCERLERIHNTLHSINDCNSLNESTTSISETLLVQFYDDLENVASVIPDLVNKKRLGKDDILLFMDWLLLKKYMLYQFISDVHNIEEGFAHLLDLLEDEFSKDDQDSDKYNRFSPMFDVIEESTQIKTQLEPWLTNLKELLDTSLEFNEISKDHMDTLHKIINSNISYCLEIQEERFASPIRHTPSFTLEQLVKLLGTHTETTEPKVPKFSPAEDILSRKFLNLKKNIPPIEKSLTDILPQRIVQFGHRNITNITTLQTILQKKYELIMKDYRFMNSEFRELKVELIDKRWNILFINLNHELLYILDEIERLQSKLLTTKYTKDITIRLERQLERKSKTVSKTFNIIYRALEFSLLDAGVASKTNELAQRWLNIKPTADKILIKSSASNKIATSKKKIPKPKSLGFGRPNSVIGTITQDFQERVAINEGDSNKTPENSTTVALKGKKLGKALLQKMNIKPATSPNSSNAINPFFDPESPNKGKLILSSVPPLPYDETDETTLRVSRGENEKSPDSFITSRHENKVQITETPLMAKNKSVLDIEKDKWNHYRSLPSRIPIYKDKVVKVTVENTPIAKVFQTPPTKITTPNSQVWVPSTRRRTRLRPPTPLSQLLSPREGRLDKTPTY

Variants of: B1
Settings: with kar9_yeast KAR9, P32526

effect of a mutation on the interaction	Variant
disrupting interaction strength	Y1161F;N1171Y;L1413S;I1453V;I1498M
disrupting interaction strength	E1168K;N1254D
